Source: patent publication US20230416364A1 (Bristol-Myers Squibb, published 2023)

T1: human CD25 (IL-2R alpha) on HEK-Blue IL-2 reporter cells (human, UniProt P01589 22-272)
T1 sequence: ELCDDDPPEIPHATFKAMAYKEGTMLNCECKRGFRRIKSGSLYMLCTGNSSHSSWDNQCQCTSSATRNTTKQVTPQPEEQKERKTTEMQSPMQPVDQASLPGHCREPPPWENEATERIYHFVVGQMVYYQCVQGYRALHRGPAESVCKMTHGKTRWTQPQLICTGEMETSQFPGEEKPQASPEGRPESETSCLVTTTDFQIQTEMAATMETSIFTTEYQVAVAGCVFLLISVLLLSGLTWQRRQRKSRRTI

B1: mouse IL-2 (ligand, UniProt P04351 21-169, looked up)
chain: APTSSSTSSSTAEAQQQQQQQQQQQQHLEQLLMDLQELLSRMENYRNLKLPRMLTFKFYLPKQATELKDLQCLEDELGPLRHVLDLTQSKSFQLEDAENFISNIRVTVVKLKGSDNTFECQFDDESATVVDFLRRWIAFCQSIISTSPQ

Experiments:
[1] = molecular target: fully mCD25 modified anti-mPD-1 antibody 4H2, (4H2 mG1 D265A KK CD25.b)2; assay: cell-based or functional assay
[2] = molecular target: T1, human CD25 (IL-2R alpha) on HEK-Blue …; assay: cell-based or functional assay
[3] = molecular target: hemi-mCD25 modified anti-mPD-1 antibody 4H2 (4H2 mG1 D265A KK CD25.b+4H2 mG1 D265A blank); assay: cell-based or functional assay
[4] = molecular target: B1; assay: SPR, Biacore T200, 37° C., fusion captured by anti-mouse IgG on CM4 chip, mIL-2 as analyte
Experimental: Truncations of mCD25 are presented at FIG. 3A.
Unless otherwise indicated, binding kinetics were determined with a BIACORE® SPR surface plasmon resonance spectrometer (Biacore AB, Uppsala, Sweden). […] The assay temperature was 37° C. and the running buffer was HEPES buffered saline pH 7.4 supplemented with 0.05% (v/v) Tween-20 and 1 g/L BSA. Purified mPD1−mCD25 variants were captured on a Biacore™ CM4 chip with immobilized anti-mouse IgG polyclonal capture antibody. […] Between cycles, the capture surface was regenerated for three minutes with 10 mM Glycine pH 1.7. Double-referenced sensorgrams were fitted to a 1:1 Langmuir binding model with mass transport to determine equilibrium dissociation constants (KD), as well as association (kₐ) and dissociation (kd) rate constants where appropriate.

| EC50 of mIL-2 (read off the curve) with 260 pM fusion; SEAP reporter (ABS620), CD25- mPD-1+ HEK-Blue IL-2 cells [1] [pM] | EC50 of mIL-2 (read off the curve) with 2.6 nM fusion; SEAP reporter (ABS620), CD25- mPD-1+ HEK-Blue IL-2 cells [1] [nM] | EC50 (read off the curve); SEAP reporter (ABS620), HEK-Blue IL-2 CD25+ cells [2] [nM] | EC50 of mIL-2 (read off the curve) with 280 pM fusion; SEAP reporter (ABS620), CD25- mPD-1+ HEK-Blue IL-2 cells [3] [pM] | EC50 of mIL-2 (read off the curve) with 2.8 nM fusion; SEAP reporter (ABS620), CD25- mPD-1+ HEK-Blue IL-2 cells [3] [nM] | Kd [4] [nM] | Binder |
| --- | --- | --- | --- | --- | --- | --- |
| ~200 | ~0.1 | ~0.05 | ~300 | ~0.1 |  | B1 |
|  |  |  |  |  | 14 | anti-mPD-1 mAb 4H2 fused to mCD25 variant a (full-length mCD25 ECD) (other, also called 4H2-mCD25 variant a; mPD1-mCD25 variant a) heavy: QVQLKESGPGLVQPSQTLSLTCTVSGFSLTSYNVHWVRQPPGKGLEWMGGMRYNEDTSYNSALKSRLSISRDTSKNQVFLKMNSLQTDDTGTYYCTRDAVYGGYGGWFAYWGQGTLVTVSSAKTTPPSVYPLAPGSAAQTNSMVTLGCLVKGYFPEPVTVTWNSGSLSSGVHTFPAVLESDLYTLSSSVTVPSSTWPSETVTCNVAHPASSTKVDKKIVPRDCGCKPCICTVPEVSSVFIFPPKPKDVLTITLTPKVTCVVVAISKDDPEVQFSWFVDDVEVHTAQTQPREEQFNSTFRSVSELPIMHQDWLNGKEFKCRVNSAAFPAPIEKTISKTKGRPKAPQVYTIPPPKKQMAKDKVSLTCMITDFFPEDITVEWQWNGQPAENYKNTQPIMKTDGSYFVYSKLNVQKSNWEAGNTFTCSVLHEGLHNHHTEKSLSHSPGGGGSGGGGSGGGGSELCLYDPPEVPNATFKALSYKNGTILNCECKRGFRRLKELVYMRCLGNSWSSNCQCTSNSHDKSRKQVTAQLEHQKEQQTTTDMQKPTQSMHQENLTGHCREPPPWKHEDSKRIYHFVEGQSVHYECIPGYKALQRGPAISICKMKCGKTGWTQPQLTCVDEREHHRFLASEESQGSRNSSPESETSCPITTTDFPQPTETTAMTETFVLTMEYK light: DTVLTQSPALAVSLGQRVTISCKASETVSSSMYSYIHWYQQKPGQQPKLLIYRASNLESGVPARFSGSGSGTDFTLTIDPVEADDVATYFCQQSWNPWTFGGGTKLELKRADAAPTVSIFPPSSEQLTSGGASVVCFLNNFYPKDINVKWKIDGSERQNGVLNSWTDQDSKDSTYSMSSTLTLTKDEYERHNSYTCEATHKTSTSPIVKSFNRNEC |
|  |  |  |  |  | 14 | anti-mPD-1 mAb 4H2 fused to mCD25 variant b (other, also called 4H2-mCD25 variant b; mPD1-mCD25 variant b) heavy: QVQLKESGPGLVQPSQTLSLTCTVSGFSLTSYNVHWVRQPPGKGLEWMGGMRYNEDTSYNSALKSRLSISRDTSKNQVFLKMNSLQTDDTGTYYCTRDAVYGGYGGWFAYWGQGTLVTVSSAKTTPPSVYPLAPGSAAQTNSMVTLGCLVKGYFPEPVTVTWNSGSLSSGVHTFPAVLESDLYTLSSSVTVPSSTWPSETVTCNVAHPASSTKVDKKIVPRDCGCKPCICTVPEVSSVFIFPPKPKDVLTITLTPKVTCVVVAISKDDPEVQFSWFVDDVEVHTAQTQPREEQFNSTFRSVSELPIMHQDWLNGKEFKCRVNSAAFPAPIEKTISKTKGRPKAPQVYTIPPPKKQMAKDKVSLTCMITDFFPEDITVEWQWNGQPAENYKNTQPIMKTDGSYFVYSKLNVQKSNWEAGNTFTCSVLHEGLHNHHTEKSLSHSPGGGGSGGGGSGGGGSELCLYDPPEVPNATFKALSYKNGTILNCECKRGFRRLKELVYMRCLGNSWSSNCQCTSNSHDKSRKQVTAQLEHQKEQQTTTDMQKPTQSMHQENLTGHCREPPPWKHEDSKRIYHFVEGQSVHYECIPGYKALQRGPAISICKMKCGKTGWTQPQLTCVDEREHHRFLASEESQGSRNSSPESETSCPITTTDFPQP light: DTVLTQSPALAVSLGQRVTISCKASETVSSSMYSYIHWYQQKPGQQPKLLIYRASNLESGVPARFSGSGSGTDFTLTIDPVEADDVATYFCQQSWNPWTFGGGTKLELKRADAAPTVSIFPPSSEQLTSGGASVVCFLNNFYPKDINVKWKIDGSERQNGVLNSWTDQDSKDSTYSMSSTLTLTKDEYERHNSYTCEATHKTSTSPIVKSFNRNEC |
